Test results: patent publication US20250084155A1 (University of Texas, published 2025)

Tests used:
[1] = target: T1, recombinant human FcγR2A (human, UniProt P12318 36-218); assay: ELISA on coated recombinant human FcγR2A; monomeric antibody; OD 450 nm
T1 sequence (looked up): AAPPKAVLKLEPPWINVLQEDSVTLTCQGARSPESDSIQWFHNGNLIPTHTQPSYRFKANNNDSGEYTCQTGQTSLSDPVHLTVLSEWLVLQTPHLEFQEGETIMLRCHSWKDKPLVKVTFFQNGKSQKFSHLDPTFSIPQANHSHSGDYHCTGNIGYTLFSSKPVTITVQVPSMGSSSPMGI
Procedure: ELISA assays were performed to assess binding to coated FcγR2A by either the monomeric antibody or the antibody in complex with HSP70. Briefly, the assay was performed by coating plates with recombinant human FcγR2A overnight at 0.3 μg/mL. Plates were then washed three times with 300 μL of 1×PBST, and then blocked using 150 µL of SuperBlock per well for 1 hr. Washing was repeated as before, then the dilution series of any of the antibody variants (referred to as “monomeric antibody”) or any of the or antibody immuno-complexes (hereafter referred to as “77A ICX”) were added. To make each dilution series, the following was performed: HSP70 was held constant, and first prepared at a 2× concentration of 200 nM. Antibody was first prepared at 600 nM (2× starting concentration) for the first well, and then serially diluted in three-fold increments using 1× PBST. For use in the assay as monomeric antibody, 80 μL of each 2× antibody dilution was added to 80 μL of 1×PBST and mixed well by pipette to make a 1× dilution series, with the highest concentration being 300 nM. To form the 77A ICX, 80 μL of each 2× antibody dilution was added to 80 μL of 2× HSP70 and mixed well by pipette. […] Plates were then read on a plate reader at 450 and 540 nm wavelengths.

[2] = target: T2, ATP-HSP70 (ATP-enriched HSP70, expressed in SF9 cells) (human, UniProt P0DMV8 1-641, limits assumed); assay: BLI, 77A on sensor, ATP-HSP70 at 150 (µM)
T2 sequence (P0DMV8 whole entry): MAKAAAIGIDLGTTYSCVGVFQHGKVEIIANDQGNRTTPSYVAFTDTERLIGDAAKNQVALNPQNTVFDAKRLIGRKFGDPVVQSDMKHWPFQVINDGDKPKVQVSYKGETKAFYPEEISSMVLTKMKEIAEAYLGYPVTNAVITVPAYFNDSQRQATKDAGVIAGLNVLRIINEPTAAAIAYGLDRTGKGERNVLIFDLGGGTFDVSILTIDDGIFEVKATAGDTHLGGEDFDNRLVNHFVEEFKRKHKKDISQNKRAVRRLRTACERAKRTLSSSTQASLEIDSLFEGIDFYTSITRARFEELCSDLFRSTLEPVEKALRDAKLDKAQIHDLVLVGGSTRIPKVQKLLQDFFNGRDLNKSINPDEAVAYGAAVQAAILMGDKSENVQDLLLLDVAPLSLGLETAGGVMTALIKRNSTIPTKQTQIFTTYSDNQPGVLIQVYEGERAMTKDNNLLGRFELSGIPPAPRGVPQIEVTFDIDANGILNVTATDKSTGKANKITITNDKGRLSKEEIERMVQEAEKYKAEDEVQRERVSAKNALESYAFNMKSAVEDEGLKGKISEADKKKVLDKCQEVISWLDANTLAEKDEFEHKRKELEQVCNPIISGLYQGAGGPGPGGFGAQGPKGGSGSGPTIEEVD
Procedure: (§1) HSP70 was expressed in SF9 cells. Affinity chromatography using resins selective for ADP or ATP-binding proteins were used to enrich bulk preparations of the correspondingly bound HSP70 recombinant protein. Protein concentrations, determined after elution, were measured so that equal concentrations could be used in subsequent assays. For BLI-based assays, antibodies and reagents were diluted out onto microwell plates and loaded into the instrument. Antibodies being tested were immobilized onto dip-and-read sensors and then observed for kinetics during binding to ATP or ADP-enriched HSP70. For ELISA, the relevant enriched HSP70 proteins were directly coated onto ELISA plate wells overnight. Test antibodies were then serially diluted across the plate wells, and detected using an appropriate secondary antibody-HRP conjugate. The plates were developed using a TMB substrate, and the O.D. stabilized using an acid stop solution.

[3] = target: T2, ATP-HSP70 (ATP-enriched HSP70, …); assay: ELISA, HSP70 coated
Procedure: as §1
(§2) ELISA data, shown in FIG. 18, depicted the same trend, in which 77A had higher maximal absorbance with the ADP-enriched HSP70 than the ATP-enriched HSP70.

[4] = target: T3, ADP-HSP70 (ADP-enriched HSP70, expressed in SF9 cells) (human, UniProt P0DMV8 1-641, limits assumed); assay: ELISA, HSP70 coated
T3 sequence (P0DMV8 whole entry): as above
Procedure: as §1, §2

[5] = target: T3, ADP-HSP70 (ADP-enriched HSP70, …); assay: BLI, 77A on sensor, ADP-HSP70 at 300 (µM)
Procedure: as §1

[6] = target: T3, ADP-HSP70 (ADP-enriched HSP70, …); assay: BLI, 77A on sensor, ADP-HSP70 at 150 (µM)
Procedure: as §1

[7] = target: T3, ADP-HSP70 (ADP-enriched HSP70, …); assay: BLI, 77A on sensor
Procedure: as §1

[8] = target: human HSP70 made in E. coli (human, UniProt P0DMV8 1-641, limits assumed); assay: Octet (BLI)
Chain of human HSP70 made in E. coli (P0DMV8 whole entry): as above

[9] = target: T4, human HSP70 made in Sf9 insect cells (human, UniProt P0DMV8 1-641, limits assumed); assay: Octet (BLI)
T4 construct: also called HSP70 made in eukaryotic insect Sf9 cells
T4 sequence (P0DMV8 whole entry): as above

[10] = target: murine HSP70 (murine, UniProt P17879 1-642); assay: Octet (BLI)
Chain of murine HSP70 (P17879 other isoform, or with tags, fused parts or gaps): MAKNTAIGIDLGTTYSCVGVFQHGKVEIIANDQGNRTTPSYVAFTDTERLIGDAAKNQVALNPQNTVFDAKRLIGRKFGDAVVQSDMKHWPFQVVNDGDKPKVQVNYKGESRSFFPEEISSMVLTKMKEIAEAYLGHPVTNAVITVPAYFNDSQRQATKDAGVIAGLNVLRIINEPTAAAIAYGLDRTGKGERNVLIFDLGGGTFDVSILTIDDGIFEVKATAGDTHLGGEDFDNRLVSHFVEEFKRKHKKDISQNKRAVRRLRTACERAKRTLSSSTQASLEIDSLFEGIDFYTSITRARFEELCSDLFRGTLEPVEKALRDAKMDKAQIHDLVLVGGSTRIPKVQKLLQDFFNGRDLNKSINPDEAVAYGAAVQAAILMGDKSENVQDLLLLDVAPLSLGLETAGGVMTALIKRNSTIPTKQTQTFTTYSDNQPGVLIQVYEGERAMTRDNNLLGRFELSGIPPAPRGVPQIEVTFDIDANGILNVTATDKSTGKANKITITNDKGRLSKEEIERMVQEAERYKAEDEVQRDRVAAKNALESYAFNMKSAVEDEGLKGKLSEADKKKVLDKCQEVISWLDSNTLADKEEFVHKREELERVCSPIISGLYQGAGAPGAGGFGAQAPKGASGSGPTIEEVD

[11] = target: T5, 504 (N-terminal GFP fusion; GFP is not in the letters); assay: immunoprecipitation with 77A from extracts of HSP70 KO 293T cells, Western blot with anti-GFP [panel B]
T5 construct: not shown: N-terminal GFP fusion partner and any linker

[12] = target: T2, ATP-HSP70 (ATP-enriched HSP70, …); assay: BLI, 77A on sensor, ATP-HSP70 at 75 (µM)
Procedure: as §1

[13] = target: T6, HSP70 (human HSP70; the antigen of the binning, humanization and variant binding assays) (human, UniProt P0DMV8 1-641, limits assumed); assay: BLI, antibody on sensor
T6 construct: also called hu HSP70
T6 sequence (P0DMV8 whole entry, change not shown): as the sequence (P0DMV8 whole entry) above
Summary of the method: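 Antibodies immobilized on biolayer interferometry sensors, baseline taken, then dipped into HSP70 antigen solution or buffer. Binding followed as interference-pattern shift; kinetic constants derived by modeling from the signals and reagent concentrations.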

[14] = target: T3, ADP-HSP70 (ADP-enriched HSP70, …); assay: BLI, 77A on sensor, ADP-HSP70 at 37.5 (µM)
Procedure: as §1

[15] = target: T3, ADP-HSP70 (ADP-enriched HSP70, …); assay: BLI, 77A on sensor, ADP-HSP70 at 75 (µM)
Procedure: as §1

[16] = target: T2, ATP-HSP70 (ATP-enriched HSP70, …); assay: BLI, 77A on sensor, ATP-HSP70 at 300 (µM)
Procedure: as §1

[17] = target: T6, HSP70 (human HSP70; the antigen of the …); assay: BLI, anti-human Fc capture, antigen 100 nM
Summary of the method: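 Antibody variants captured on anti-human Fc biosensors at […]; antigen at 100 nM flowed over, 25° C. Captured antigen recorded at 610 s (start of dissociation) and 1495 s (end of dissociation), giving % dissociation.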

[18] = target: T6, HSP70 (human HSP70; the antigen of the …); assay: BLI, anti-human Fc capture, steady state
Procedure: (§3) Further kinetics assays were conducted for select antibody variants. Assays were performed as follows. Antibody variants were immobilized using anti-human Fc onto the surface of a series of biosensors. Antigen was passed over the surface to generate a binding response. Binding data for the antibody: antigen interactions were collected at 25° C. on the biosensors. A dilution series of the antigen was used in the association step, in order to fit results globally and get the best values for ka, kd, and KD. The response data for the binding of antigen to the surface immobilized antibody were fitted to a 1:1 binding model.

[19] = target: T6, HSP70 (human HSP70; the antigen of the …); assay: BLI, anti-human Fc capture, antigen dilution series, 1:1 fit
Procedure: as §3

B1: h77A-1-G1m3-GAALIE (antibody, human IgG1, kappa)
heavy: QIQLVQSGAEVKKPGASVKVSCKASGYTFTNYGMNWVRQAPGQGLEWMGWINTYTGEPTYADDFKGRFTFTTDTSTSTAYMELRSLRSDDTAVYFCARYDHAMDYWGQGTLVTVSSASTKGPSVFPLAPSSKSTSGGTAALGCLVKDYFPEPVTVSWNSGALTSGVHTFPAVLQSSGLYSLSSVVTVPSSSLGTQTYICNVNHKPSNTKVDKRVEPKSCDKTHTCPPCPAPELLAGPSVFLFPPKPKDTLMISRTPEVTCVVVDVSHEDPEVKFNWYVDGVEVHNAKTKPREEQYNSTYRVVSVLTVLHQDWLNGKEYKCKVSNKALPLPEEKTISKAKGQPREPQVYTLPPSREEMTKNQVSLTCLVKGFYPSDIAVEWESNGQPENNYKTTPPVLDSDGSFFLYSKLTVDKSRWQQGNVFSCSVMHEALHNHYTQKSLSLSPGK
light: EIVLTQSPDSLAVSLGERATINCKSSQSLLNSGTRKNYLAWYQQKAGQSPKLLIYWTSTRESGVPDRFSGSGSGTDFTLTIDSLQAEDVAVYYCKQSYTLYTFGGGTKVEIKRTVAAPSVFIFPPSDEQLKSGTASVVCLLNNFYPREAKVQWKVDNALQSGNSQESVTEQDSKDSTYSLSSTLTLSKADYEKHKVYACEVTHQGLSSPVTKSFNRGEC
notes: IgG1 G236A/A330L/I332E (EU) Fc variant; also called 77A^GAALIE; copies: 2 + 2
- binding result [1]: binds

B2: 77A antibody (clone 77A, murine anti-HSP70 monoclonal antibody) (antibody, V domains shown)
VH: QIQLVQSGPELKKPGETVKISCKASGYTFTNYGMNWVKQAPGKGLKWMGWINTYTGEPTYADDFKGRFAFSLETSATTAYLQINNLKNEDTATYFCARYDHAMDYWGQGTSVTVSS
VL: DIVMSQSPSSLAVSAGEKVTMSCKSSQSLLNSGTRKNYLAWYQQKPGQSPKLLIYWTSTRESGVPDRFTGSGSGTDFTLTINSVQAEDLAVYYCKQSYTLYTFGGGTKLEIK
notes: murine hybridoma antibody; its isotype control is IgG2B; also called mAb 77A
- Kd [2]: 20.2 nM
- koff [2]: 0.00038 s⁻¹
- kon [2]: 18800 M⁻¹ s⁻¹
- EC50 [3]: 1.77 nM
- EC50 [4]: 0.737 nM
- Kd [5]: 5.42 nM
- koff [5]: 0.000292 s⁻¹
- kon [5]: 53800 M⁻¹ s⁻¹
- Kd [6]: 5.42 nM
- koff [6]: 0.000292 s⁻¹
- kon [6]: 53800 M⁻¹ s⁻¹
- fold greater affinity (KD) than ATP-enriched HSP70 [7]: ≥ 4 fold
- Kd [8]: 0.85 nM
- Kd [9]: < 0.001 nM
- Kd [10]: 988 nM
- binding result [11]: no binding
- Kd [12]: 20.2 nM
- koff [12]: 0.00038 s⁻¹
- kon [12]: 18800 M⁻¹ s⁻¹
- Kd [13]: 1.2 nM
- koff [13]: 8.08e-05 s⁻¹
- kon [13]: 67400 M⁻¹ s⁻¹
- Kd [14]: 5.42 nM
- koff [14]: 0.000292 s⁻¹
- kon [14]: 53800 M⁻¹ s⁻¹
- Kd [15]: 5.42 nM
- koff [15]: 0.000292 s⁻¹
- kon [15]: 53800 M⁻¹ s⁻¹
- Kd [16]: 20.2 nM
- koff [16]: 0.00038 s⁻¹
- kon [16]: 18800 M⁻¹ s⁻¹

B3: h77A-1 (antibody, V domains shown)
VH: QIQLVQSGAEVKKPGASVKVSCKASGYTFTNYGMNWVRQAPGQGLEWMGWINTYTGEPTYADDFKGRFTFTTDTSTSTAYMELRSLRSDDTAVYFCARYDHAMDYWGQGTLVTVSS
VL: EIVLTQSPDSLAVSLGERATINCKSSQSLLNSGTRKNYLAWYQQKAGQSPKLLIYWTSTRESGVPDRFSGSGSGTDFTLTIDSLQAEDVAVYYCKQSYTLYTFGGGTKVEIK
notes: also called hVH-1 + hVL-1
- % Diss [17]: 7.63%
- KD Steady State [18]: 1.2 nM
- Kd [19]: 2.39 nM
- koff [19]: 0.000131 s⁻¹
- kon [19]: 54700 M⁻¹ s⁻¹
- Kd [13]: 2.61 nM
- koff [13]: 0.000173 s⁻¹
- kon [13]: 66200 M⁻¹ s⁻¹
